Test results reported in patent US20230250154A1 (CYTONICS, published 2023).
Values belong to the binder of their own block, whether it stands above or below them.

Columns and labels:
Test in all cases: cell-based or functional assay
bovine trypsin = bovine trypsin (bovine, UniProt P00760 24-246)
Elastase = target: Elastase
chymotrypsin = target: chymotrypsin
ADAMTS5 = target: T1, ADAMTS5 (human, UniProt Q9UNA0 262-622, limits assumed)
T1 sequence (looked up): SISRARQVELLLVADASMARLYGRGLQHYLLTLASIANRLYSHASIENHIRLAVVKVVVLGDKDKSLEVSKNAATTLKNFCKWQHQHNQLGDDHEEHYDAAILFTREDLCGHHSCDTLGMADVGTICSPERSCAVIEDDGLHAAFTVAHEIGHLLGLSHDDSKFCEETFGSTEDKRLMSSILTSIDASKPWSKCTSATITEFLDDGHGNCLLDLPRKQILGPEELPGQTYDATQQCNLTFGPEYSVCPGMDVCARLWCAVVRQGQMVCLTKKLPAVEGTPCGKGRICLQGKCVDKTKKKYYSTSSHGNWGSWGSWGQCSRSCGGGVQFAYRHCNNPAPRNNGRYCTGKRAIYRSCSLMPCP

MMP12 = MMP12 (human, UniProt P39900 106-470, limits assumed)
Chain of MMP12 (P39900 106-470 limits assumed): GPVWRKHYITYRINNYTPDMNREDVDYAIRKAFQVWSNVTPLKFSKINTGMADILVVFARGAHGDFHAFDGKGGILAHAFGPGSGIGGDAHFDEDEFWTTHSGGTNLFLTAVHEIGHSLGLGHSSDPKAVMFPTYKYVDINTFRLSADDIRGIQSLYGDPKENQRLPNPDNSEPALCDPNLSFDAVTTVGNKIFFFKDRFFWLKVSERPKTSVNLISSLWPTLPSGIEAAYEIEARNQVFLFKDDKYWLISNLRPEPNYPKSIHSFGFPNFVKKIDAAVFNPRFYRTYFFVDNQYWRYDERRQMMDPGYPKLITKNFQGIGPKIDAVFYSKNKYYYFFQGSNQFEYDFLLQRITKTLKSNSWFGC

MMP13 = MMP13 (human, UniProt P45452 104-471, limits assumed)
MMP2 = target: T2, MMP2 (human, UniProt P08253 110-660, limits assumed)
T2 sequence (looked up): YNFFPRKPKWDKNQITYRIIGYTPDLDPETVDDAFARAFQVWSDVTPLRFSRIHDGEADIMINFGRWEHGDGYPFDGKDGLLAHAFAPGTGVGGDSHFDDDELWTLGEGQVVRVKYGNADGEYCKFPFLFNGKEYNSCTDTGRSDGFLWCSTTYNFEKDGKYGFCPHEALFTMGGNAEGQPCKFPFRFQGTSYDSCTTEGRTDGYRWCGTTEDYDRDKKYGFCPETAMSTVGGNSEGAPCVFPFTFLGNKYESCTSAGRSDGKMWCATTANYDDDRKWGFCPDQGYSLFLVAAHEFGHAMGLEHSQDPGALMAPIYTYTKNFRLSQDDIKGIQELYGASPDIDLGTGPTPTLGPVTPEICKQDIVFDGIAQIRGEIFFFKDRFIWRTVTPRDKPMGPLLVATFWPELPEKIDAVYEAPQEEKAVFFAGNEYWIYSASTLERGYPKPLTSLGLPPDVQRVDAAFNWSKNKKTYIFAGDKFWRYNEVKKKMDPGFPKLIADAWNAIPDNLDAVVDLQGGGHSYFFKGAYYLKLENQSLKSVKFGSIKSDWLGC

MMP1 = target: T3, MMP1 (human, UniProt P03956 100-469, limits assumed)
T3 sequence (looked up): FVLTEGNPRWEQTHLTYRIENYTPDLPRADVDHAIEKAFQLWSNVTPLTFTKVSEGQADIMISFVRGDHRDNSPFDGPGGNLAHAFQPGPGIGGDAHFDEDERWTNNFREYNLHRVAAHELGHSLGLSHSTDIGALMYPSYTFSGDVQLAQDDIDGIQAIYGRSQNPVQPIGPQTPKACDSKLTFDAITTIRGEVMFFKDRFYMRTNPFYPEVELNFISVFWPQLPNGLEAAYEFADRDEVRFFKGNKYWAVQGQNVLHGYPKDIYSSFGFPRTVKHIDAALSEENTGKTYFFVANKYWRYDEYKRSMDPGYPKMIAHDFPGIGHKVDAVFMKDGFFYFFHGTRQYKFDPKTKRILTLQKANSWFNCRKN

MMP8 = MMP8 (human, UniProt P22894 101-467, limits assumed)
Chain of MMP8 (P22894 101-467 limits assumed): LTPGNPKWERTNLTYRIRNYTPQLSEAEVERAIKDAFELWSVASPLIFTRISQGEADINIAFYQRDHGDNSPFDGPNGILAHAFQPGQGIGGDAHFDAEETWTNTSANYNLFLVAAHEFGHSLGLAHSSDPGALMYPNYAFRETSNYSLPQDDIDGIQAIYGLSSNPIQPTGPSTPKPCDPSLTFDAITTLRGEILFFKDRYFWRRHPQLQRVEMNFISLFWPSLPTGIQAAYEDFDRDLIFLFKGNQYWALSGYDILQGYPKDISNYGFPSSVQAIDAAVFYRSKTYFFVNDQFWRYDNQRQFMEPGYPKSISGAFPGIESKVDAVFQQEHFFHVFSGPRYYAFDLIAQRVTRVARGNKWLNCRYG

MMP9 = MMP9 (human, UniProt P14780 107-707, limits assumed)
Chain of MMP9 (P14780 107-707 limits assumed): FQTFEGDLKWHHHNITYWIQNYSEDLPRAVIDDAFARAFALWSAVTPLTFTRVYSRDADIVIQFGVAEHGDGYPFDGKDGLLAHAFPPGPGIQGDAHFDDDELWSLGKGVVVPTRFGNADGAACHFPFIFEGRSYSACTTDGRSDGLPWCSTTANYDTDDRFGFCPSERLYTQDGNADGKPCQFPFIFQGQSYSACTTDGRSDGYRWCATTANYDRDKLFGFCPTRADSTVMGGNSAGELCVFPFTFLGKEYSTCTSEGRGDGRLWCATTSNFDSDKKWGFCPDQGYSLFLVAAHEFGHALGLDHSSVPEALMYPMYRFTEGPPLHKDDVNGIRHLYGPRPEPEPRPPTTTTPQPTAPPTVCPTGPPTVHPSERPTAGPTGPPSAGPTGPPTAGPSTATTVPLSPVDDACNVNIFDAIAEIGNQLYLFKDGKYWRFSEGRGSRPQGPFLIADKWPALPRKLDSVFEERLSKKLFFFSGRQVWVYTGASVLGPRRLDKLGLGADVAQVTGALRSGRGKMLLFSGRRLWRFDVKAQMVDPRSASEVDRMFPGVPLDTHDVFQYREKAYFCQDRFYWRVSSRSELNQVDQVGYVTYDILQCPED

ADAMTS4 = target: T4, ADAMTS4 (human, UniProt O75173 213-685, limits assumed)
T4 sequence (looked up): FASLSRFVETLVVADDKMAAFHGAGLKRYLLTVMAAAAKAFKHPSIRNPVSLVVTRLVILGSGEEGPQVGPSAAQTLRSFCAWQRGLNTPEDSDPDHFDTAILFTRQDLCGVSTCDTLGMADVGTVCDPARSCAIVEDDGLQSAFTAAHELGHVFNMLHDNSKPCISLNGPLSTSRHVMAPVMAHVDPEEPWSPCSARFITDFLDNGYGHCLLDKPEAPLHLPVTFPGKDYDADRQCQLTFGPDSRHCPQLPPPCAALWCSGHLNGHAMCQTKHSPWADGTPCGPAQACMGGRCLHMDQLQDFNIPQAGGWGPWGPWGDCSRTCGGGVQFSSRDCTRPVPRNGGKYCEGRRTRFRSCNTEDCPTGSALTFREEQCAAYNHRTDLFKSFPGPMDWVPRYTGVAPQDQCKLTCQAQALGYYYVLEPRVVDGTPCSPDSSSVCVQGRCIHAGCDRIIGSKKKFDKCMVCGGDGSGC

MMP3 = MMP3 (human, UniProt P08254 100-477, limits assumed)
Chain of MMP3 (P08254 100-477 limits assumed): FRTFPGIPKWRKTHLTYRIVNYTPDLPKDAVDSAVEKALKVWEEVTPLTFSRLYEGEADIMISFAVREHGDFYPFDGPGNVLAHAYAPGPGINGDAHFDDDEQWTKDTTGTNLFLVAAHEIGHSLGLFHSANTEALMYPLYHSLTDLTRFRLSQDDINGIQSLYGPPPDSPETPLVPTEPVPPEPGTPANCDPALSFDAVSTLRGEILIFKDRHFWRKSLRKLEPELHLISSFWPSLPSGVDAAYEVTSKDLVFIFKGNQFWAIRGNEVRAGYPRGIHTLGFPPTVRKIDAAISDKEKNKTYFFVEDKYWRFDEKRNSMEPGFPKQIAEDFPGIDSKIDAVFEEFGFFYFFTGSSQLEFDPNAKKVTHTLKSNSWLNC

Chain of bovine trypsin (P00760 24-246): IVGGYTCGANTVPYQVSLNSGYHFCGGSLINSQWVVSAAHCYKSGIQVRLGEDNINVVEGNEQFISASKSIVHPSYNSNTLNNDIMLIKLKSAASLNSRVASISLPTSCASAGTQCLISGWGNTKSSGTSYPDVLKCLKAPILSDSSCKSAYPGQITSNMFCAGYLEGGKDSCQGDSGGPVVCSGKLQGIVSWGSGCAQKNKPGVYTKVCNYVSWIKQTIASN

Protease Inhibition (% of WT) (bovine trypsin): 100 % of WT
Protease Inhibition (% of WT) (Elastase): 550 % of WT
Protease Inhibition (% of WT) (chymotrypsin): 80 % of WT
Protease Inhibition (% of WT) (ADAMTS5): 350 % of WT
Protease Inhibition (% of WT) (MMP12): 100 % of WT
Protease Inhibition (% of WT) (MMP13): 700 % of WT
Protease Inhibition (% of WT) (MMP2): 110 % of WT
Protease Inhibition (% of WT) (MMP1): 50 % of WT
Protease Inhibition (% of WT) (MMP8): 110 % of WT
Protease Inhibition (% of WT) (MMP9): 100 % of WT
Protease Inhibition (% of WT) (ADAMTS4): 70 % of WT
Protease Inhibition (% of WT) (MMP3): 110 % of WT
B1: Variant A2M, bait region SEQ ID NO 90 (other)
chain: SVSGKPQYMVLVPSLLHTETTEKGCVLLSYLNETVTVSASLESVRGNRSLFTDLEAENDVLHCVAFAVPKSSSNEEVMFLTVQVKGPTQEFKKRTTVMVKNEDSLVFVQTDKSIYKPGQTVKFRVVSMDENFHPLNELIPLVYIQDPKGNRIAQWQSFQLEGGLKQFSFPLSSEPFQGSYKVVVQKKSGGRTEHPFTVEEFVLPKFEVQVTVPKIITILEEEMNVSVCGLYTYGKPVPGHVTVSICRKYSDASDCHGEDSQAFCEKFSGQLNSHGCFYQQVKTKVFQLKRKEYEMKLHTEAQIQEEGTVVELTGRQSSEITRTITKLSFVKVDSHFRQGIPFFGQVRLVDGKGVPIPNKVIFIRGNEANYYSNATTDEHGLVQFSINTTNVMGTSLTVRVNYKDRSPCYGYQWVSEEHEEAHHTAYLVFSPSKSFVHLEPMSHELPCGHTQTVQAHYILNGGTLLGLKKLSFYYLIMAKGGIVRTGTHGLLVKQEDMKGHFSISIPVKSDIAPVARLLIYAVLPTGDVIGDSAKYDVENCLANKVDLSFSPSQSLPASHAHLRVTAAPQSVCALRAVDQSVLLMKPDAELSASSVYNLLPEKDLTGFPGPLNDQDDEDCINRHNVYINGITYTPVSSTNEKDMYSFLEDMGLKAFTNSKIRKPKMCPQLEQYEMHGPEGLRVGSELEGRGSFYESDVMGRGHARLVHVEEPHTKLLRKYFPETWIWDLVVVNSAGVAEVGVTVPDTITEWKAGAFCLSEDAGLGISSTASLRAFQPFFVELTMPYSVIRGEAFTLKATVLNYLPKCIRVSVQLEASPAFLAVPVEKEQAPHCICANGRQTVSWAVTPKSLGNVNFTVSAEALESQELCGTEVPSVPEHGRKDTVIKPLLVEPEGLEKETTFNSLLCPSGGEVSEELSLKLPPNVVEESARASVSVLGDILGSAMQNTQNLLQMPYGCGEQNMVLFAPNIYVLDYLNETQQLTPEIKSKAIGYLNTGYQRQLNYKHYDGSYSTFGERYGRNQGNTWLTAFVLKTFAQARAYIFIDEAHITQALIWLSQRQKDNGCFRSSGSLLNNAIKGGVEDEVTLSAYITIALLEIPLTVTHPVVRNALFCLESAWKTAQEGDHGSHVYTKALLAYAFALAGNQDKRKEVLKSLNEEAVKKDNSVHWERPQKPKAPVGHFYEPQAPSAEVEMTSYVLLAYLTAQPAPTSEDLTSATNIVKWITKQQNAQGGFSSTQDTVVALHALSKYGAATFTRTGKAAQVTIQSSGTFSSKFQVDNNNRLLLQQVSLPELPGEYSMKVTGEGCVYLQTSLKYNILPEKEEFPFALGVQTLPQTCDEPKAHTSFQISLSVSYTGSRSASNMAIVDVKMVSGFIPLKPTVKMLERSNHVSRTEVSSNHVLIYLDKVSNQTLSLFFTVLQDVPVRDLKPAIVKVYDYYETDEFAIAEYNAPCSKDLGNADYKDDDDKGASHHHHHH

Protease Inhibition (% of WT) (bovine trypsin): 100 % of WT
Protease Inhibition (% of WT) (Elastase): 75 % of WT
Protease Inhibition (% of WT) (chymotrypsin): 71 % of WT
Protease Inhibition (% of WT) (ADAMTS5): 250 % of WT
Protease Inhibition (% of WT) (MMP12): 100 % of WT
Protease Inhibition (% of WT) (MMP13): 720 % of WT
Protease Inhibition (% of WT) (MMP2): 120 % of WT
Protease Inhibition (% of WT) (MMP1): 180 % of WT
Protease Inhibition (% of WT) (MMP8): 350 % of WT
Protease Inhibition (% of WT) (MMP9): 60 % of WT
Protease Inhibition (% of WT) (ADAMTS4): 70 % of WT
Protease Inhibition (% of WT) (MMP3): 170 % of WT
B2: Variant A2M, bait region SEQ ID NO 84 (other)
chain: SVSGKPQYMVLVPSLLHTETTEKGCVLLSYLNETVTVSASLESVRGNRSLFTDLEAENDVLHCVAFAVPKSSSNEEVMFLTVQVKGPTQEFKKRTTVMVKNEDSLVFVQTDKSIYKPGQTVKFRVVSMDENFHPLNELIPLVYIQDPKGNRIAQWQSFQLEGGLKQFSFPLSSEPFQGSYKVVVQKKSGGRTEHPFTVEEFVLPKFEVQVTVPKIITILEEEMNVSVCGLYTYGKPVPGHVTVSICRKYSDASDCHGEDSQAFCEKFSGQLNSHGCFYQQVKTKVFQLKRKEYEMKLHTEAQIQEEGTVVELTGRQSSEITRTITKLSFVKVDSHFRQGIPFFGQVRLVDGKGVPIPNKVIFIRGNEANYYSNATTDEHGLVQFSINTTNVMGTSLTVRVNYKDRSPCYGYQWVSEEHEEAHHTAYLVFSPSKSFVHLEPMSHELPCGHTQTVQAHYILNGGTLLGLKKLSFYYLIMAKGGIVRTGTHGLLVKQEDMKGHFSISIPVKSDIAPVARLLIYAVLPTGDVIGDSAKYDVENCLANKVDLSFSPSQSLPASHAHLRVTAAPQSVCALRAVDQSVLLMKPDAELSASSVYNLLPEKDLTGFPGPLNDQDDEDCINRHNVYINGITYTPVSSTNEKDMYSFLEDMGLKAFTNSKIRKPKMCPQLEQYEMHGPEGLRVGKEEEGLGSIPENFFGVSELEGRGSKLRKYFPETWIWDLVVVNSAGVAEVGVTVPDTITEWKAGAFCLSEDAGLGISSTASLRAFQPFFVELTMPYSVIRGEAFTLKATVLNYLPKCIRVSVQLEASPAFLAVPVEKEQAPHCICANGRQTVSWAVTPKSLGNVNFTVSAEALESQELCGTEVPSVPEHGRKDTVIKPLLVEPEGLEKETTFNSLLCPSGGEVSEELSLKLPPNVVEESARASVSVLGDILGSAMQNTQNLLQMPYGCGEQNMVLFAPNIYVLDYLNETQQLTPEIKSKAIGYLNTGYQRQLNYKHYDGSYSTFGERYGRNQGNTWLTAFVLKTFAQARAYIFIDEAHITQALIWLSQRQKDNGCFRSSGSLLNNAIKGGVEDEVTLSAYITIALLEIPLTVTHPVVRNALFCLESAWKTAQEGDHGSHVYTKALLAYAFALAGNQDKRKEVLKSLNEEAVKKDNSVHWERPQKPKAPVGHFYEPQAPSAEVEMTSYVLLAYLTAQPAPTSEDLTSATNIVKWITKQQNAQGGFSSTQDTVVALHALSKYGAATFTRTGKAAQVTIQSSGTFSSKFQVDNNNRLLLQQVSLPELPGEYSMKVTGEGCVYLQTSLKYNILPEKEEFPFALGVQTLPQTCDEPKAHTSFQISLSVSYTGSRSASNMAIVDVKMVSGFIPLKPTVKMLERSNHVSRTEVSSNHVLIYLDKVSNQTLSLFFTVLQDVPVRDLKPAIVKVYDYYETDEFAIAEYNAPCSKDLGNADYKDDDDKGASHHHHHH
